Test results as given in patent publication US20020114797, “Composition and methods for modulating the length of telomeres” (Telogene Inc., published 2002).

How the values were obtained:
[1] = molecular target: T1, GST-UP1 (hnRNP A1 proteolytic fragment UP1) (UniProt P49312 P49312:1-196); assay: pulldown; glutathione Sepharose beads, washes at 165 mM NaCl; highest recovery; plain beads less than 10% of bound; details: tags: N-terminal GST fusion (inferred); label: 32P
Protocol: (§1) Following 5×1 ml washes in buffer containing 165 mM NaCl, the recovery of the labelled oligos was measured. The (TTAGGG)₃ oligonucleotide was recovered with the highest yield. A control experiment with plain beads yielded less that 10% of bound (TTAGGG)₃ oligonucleotide. A labelled DNA oligonucleotide containing the complementary sequence (CCCTAA)₃ was recovered at background level. […] UP1 associated directly with telomeric repeats carrying the TTAGGG sequence. Gel-shift assays performed with mutated oligonucleotides indicate that UP1 binds specifically to (TTAGGG)₃ oligonucleotide.
(§2) ³²P-labelled DNA oligonucleotides were mixed with Glutathione Sepharose 4B beads containing or lacking the GST-UP1 fusion protein. Following 5×1 ml washes in buffer containing 165 mM NaCl, the recovery of the labelled oligos was measured. The (TTAGGG)₃ oligonucleotide was recovered with the highest yield. A control experiment with plain beads yielded less that 10% of bound (TTAGGG)₃ oligonucleotide. A labelled DNA oligonucleotide containing the complementary sequence (CCCTAA)₃ was recovered at background level. […] Thus, UP1 can associate directly with telomeric repeats carrying the TTAGGG sequence. Furthermore, gel-shift assays performed with mutated oligonucleotides indicate that UP1 binds specifically to (TTAGGG)₃ oligonucleotide. […] It remains to be shown whether UP1 associates with telomeric repeats in vivo.

[2] = molecular target: T1, GST-UP1 (hnRNP A1 proteolytic fragment …); assay: pulldown; background level recovery; 165 mM NaCl washes; also tested by gel shift (FIG. 3 lane 9); details: tags: N-terminal GST fusion (inferred); label: 32P
Protocol: as §1, §2

T1 sequence (P49312 1-196, one chain of several): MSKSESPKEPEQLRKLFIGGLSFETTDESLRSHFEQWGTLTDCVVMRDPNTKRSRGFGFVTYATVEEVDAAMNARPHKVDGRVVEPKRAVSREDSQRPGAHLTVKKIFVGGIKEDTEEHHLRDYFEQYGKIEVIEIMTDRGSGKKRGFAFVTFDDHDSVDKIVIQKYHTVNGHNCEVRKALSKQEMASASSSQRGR

Binder | binding result [1] | binding result [2]
TTAGGGTTAGGGTTAGGG (ssDNA) [vertebrate telomeric (TTAGGG)3] | binds | 
CCCTAACCCTAACCCTAA (ssDNA) [complementary C-strand (CCCTAA)3] |  | no binding
